Data on two molecules can be found in patent publication US10864251B2, “Peptides of syndecan-1 for inhibiting angiogenesis” (Wisconsin Alumni Research Foundation, priority 2006, dated 2020).

Where no end group is shown, it is not given here.

In data set [1] the test system is FGF-induced angiogenesis in the mouse cornea. Put plainly: Corneal pocket implant angiogenesis assay. It counts as in vivo. On the procedure:
FIG. 13—Inhibition of corneal angiogenesis by SSTN. PolyHEMA pellets (0.25 μL) containing 67 ng FGF-2 and sucralfate were implanted into the avascular mouse cornea. Alzet pumps containing PBS, 2500 μM mS1ED or a range of SSTN concentrations (0-100 μM) were implanted subcutaneously on the back of the animals and angiogenesis for 7 days. Fluorescent dextran was injected suborbitally for 2 min prior to sacrifice for observation of the vascular system in dissected cornea (picture insets). Total angiogenesis is quantified as total length of vessels growing from the limbic vessels at the margin of the cornea.
A polyhydroxyethylmethacrylate (PolyHEMA) pellet 1 μl in volume containing 100 ng FGF was implanted into pockets surgically prepared in the center of the avascular corneas of 6 wk-old Balb/c mice. Three mice were used as controls and three mice received a 0.2 ml Alzet osmotic pump implanted subcutaneously on the back of the mice. The pump was loaded with 100 μM synstatin82-130 in sterile saline and delivers 1 μl into the mouse per hr. The mice were allowed to recover and were maintained for seven days. The extent of angiogenesis was recorded by digital camera images of the living mouse. Fluorescent dextran was then injected into the vascular via retro-orbital injection 1-2 minutes prior to sacrifice. Corneas were surgically removed, mounted on slides and the extent of vascularization observed via fluorescence microscopy.
To test the efficacy of synstatin82-130 in vivo, the inventors have used the mouse corneal pocket implant angiogenesis assay. Here, angiogenesis is induced in the avascular mouse cornea by implantation of a polyHEMA pellet containing fibroblast growth factor (FGF), which is a potent angiogenic agent. The FGF will induce angiogenic outgrowth of new vessels from the limbic vessels at the margin of the cornea into the avascular region at the center of the cornea where the pellet is implanted. The inventors have tested recombinant S1ED by supplying it along with the FGF in the pellet implanted into the cornea, and have also introduced it into the systemic circulation of the mouse through the use of an osmotic pump placed subcutaneously on the back of the animal. The latter protocol more closely mimics the manner in which such an inhibitor might be delivered as a drug in patients. […] The concentration necessary for the block in vivo has not yet been measured. […] However, this is likely to be a high estimate, as clearance and degradation are likely to occur, and the protein is likely to be present in the greater volume of the mouse than just the vascular system.
Lastly, SSTN was tested in the in vivo corneal angiogenesis assay. Polyhydroxyethylmethylacrylate pellets (0.25 μL) containing 67 ng FGF-2 and sucralfate as a slow release agent were implanted into the avascular mouse cornea. After seven days, fluorescent dextran was injected suborbitally to highlight the vascular system and the mice were sacrificed. […] To supply the inhibitor in a more quantifiable and physiological manner, recombinant mS1ED or SSTN were delivered systemically via Alzet osmotic pumps implanted subcutaneously on the backs of the animals. […] To correlate this with the active concentration in the plasma, the inventors took advantage of rabbit polyclonal antibodies generated against mS1ED, which detect active SSTN on dot blots. […] Using this method to detect active SSTN in the blood collected from animals after 1 week of SSTN treatment, SSTN is shown to be in the blood at 125-150 nM when present at 10 μM in the osmotic pump.

Data set [2] deals with MDA-MB-231 human mammary carcinoma cells. It counts as cell-based. Here is the method:
FIGS. 5A-5F—Inhibition of MDA-MB-231 human mammary carcinoma cell attachment and spreading on VN by synstatin82-130. MDA-MB-231 human mammary carcinoma cells, which rely on the αvβ3 integrin for attachment and spreading on VN, were plated on 10 μg/ml VN for 2 hr in the absence of peptide (FIG. 5A) or in the presence of 0.1 (FIG. 5B), 0.3 (FIG. 5C) or 1 μM (FIG. 5D) synstatin82-130. The cells were fixed and stained as in FIG. 2.
FIG. 17—Human SSTN peptides inhibit αvβ3-mediated cell attachment and spreading on vitronectin. MDA-MB-231 human mammary carcinoma cells were allowed to attach and spread on either vitronectin (VN) or fibronectin (FN) during a 2 hr assay in the presence of 0, 0.1, 0.3, 0.5, 1.0 or 30 μM SSTN peptide. […] The two peptides tested are derived either from amino acids 88-121 (hSSTN 88-121) or 89-120 (hSSTN 89-120) of the human Sdc1 sequence. Adhesion to VN, but not FN, is mediated by the αvβ3 integrin on these cells and is disrupted by the human SSTN peptides.
Cell adhesion and spreading assays were performed with modification to the previous procedures (Lebakken and Rapraeger, 1996. Briefly, human plasma vitronectin or fibronectin at 10-30 μg/ml were applied to nitrocellulose-coated ten well slides (Erie Scientific) and incubated for 1-2 h at 37° C. Slides were blocked with 1.0% heat-denatured bovine serum albumin for a minimum of 30 min at 37° C. Cells were detached from the substratum using 5 mM EDTA in Tris-buffered saline and resuspended in HEPES-buffered culture medium containing 0.1% heat-denatured BSA. Cells were plated at a density of 15,000 cells per well and allowed to attach and spread for 2 h prior to fixation in 4% paraformaldehyde in CMF-PBS. For fluorescence microscopy, fixed cells were permeabilized in 0.2% Triton X-100, labeled with rhodamine-conjugated phalloidin and analyzed using fluorescence microscopy. For testing inhibition by recombinant mScd-1ED and synstatin82-130, cells were pre-incubated 10 min before plating in the presence of the inhibitor. […] LM609 was used as a specific block to αvβ3 and P1F6 was used as a specific blocker of αvβ5.
The inventors have tested the adhesion and spreading of MDA-MB-231 mammary carcinoma cells on VN in the presence or absence of synstatin82-130. These cells rely specifically on the active αvβ3 integrin for this adhesion (Beauvais et al., 2004). Recombinant Sdc1 ectodomain (SLED) has been shown by the inventors previously to block spreading of these cells with an IC50 of about 3-10 μM (Beauvais et al., 2004). […] Thus, synstatin82-130 is a specific and effective inhibitor of αvβ3 integrin activation.

Regarding “SNTETAFTSVLPAGEKPEEGEPVLHVEAEPGFTARDKEKEVTTRPRETV [synstatin82-130]”, the “ill effects after one week of treatment” value in data set [1] (100 μM in osmotic pump, activity, eating, weight, behavior) is recorded as “no ill effects”. Also, in data set [1] (100 μM in pump, same assumptions), the “estimated systemic concentration after 24 hr” value is at most 1.2 µM. This molecule also had an IC50 in data set [2] (2 h) of about 100 nM.

B1: S1ED: recombinant mouse Sdc1 ectodomain (amino acids 18-251), expressed in bacteria as GST fusion or 6×His-tagged protein (protein)
chain: QPALPQIVAVNVPPEDQDGSGDDSDNFSGSGTGALPDTLSRQTPSTWKDVWLLTATPTAPEPTSSNTETAFTSVLPAGEKPEEGEPVLHVEAEPGFTARDKEKEVTTRPRETVQLPITQRASTVRVTTAQAAVTSHPHGGMQPGLHETSAPTAPGQPDHQPPRVEGGGTSVIKEVVEDGTANQLPAGEGSGEQDFTFETSGENTAVAAVEPGLRNQPPVDEGATGASQSLLDRK
modifications: left off: a dimerising Fc or GST
notes: recombinant mouse Sdc1 ectodomain (amino acids 18-251), expressed in bacteria as GST fusion or 6×His-tagged protein
For the molecule B1, the “estimated systemic concentration after 24 hr” value in data set [1] (2.4 mM in pump, 1 μl per hour, assuming 2 ml blood volume, no degradation or clearance) is “approximately 29 μM”. The corneal angiogenesis entry in data set [1] (2500 μM in Alzet pump, 67 ng FGF-2 pellet, 7 days) was “nearly total block of angiogenesis”; in data set [1] (incorporated into the pellet) it was “reduced the angiogenesis”. Also, the FGF-induced corneal angiogenesis entry in data set [1] (in the pellet with FGF or systemic via osmotic pump, 2.4 mM, 1 μl per hour) was “blocks the FGF-induced angiogenesis”. Besides, the “complete block of cell attachment on VN” value in data set [2] (highest concentration tested, 50 μM) is “not seen”.
